Data from patent US20250333486A1, “Anti-HSP90 alpha antibody and uses thereof” (NATIONAL HEALTH RESEARCH INSTITUTES, priority 2021, published 2025).

Assays:
rHSP90α = target: T1, rHSP90α (Homo sapiens, UniProt P07900); experiment: ELISA for HSP90α-binding activities; settings: culture supernatants of six hybridoma clones
T1 construct: recombinant 732-amino acid (a.a.) full-length human HSP90α (rHSP90α; PeproTech Co., Cranbury, NJ, USA); purchased PeproTech Co., Cranbury, NJ, USA
Method: For assaying the HSP90α-binding activities of the prepared antibodies, 96-well plates were coated with 12.5 ng/ml of rHSP90α in the capture buffer (BioLegend, San Diego, CA, USA) by overnight incubation at 4° C. The coated plates were washed twice with PBST and then blocked with PBST plus 3% bovine serum albumin (BSA). The prepared antibodies were applied and incubated 2 h at room temperature. After three washes with PBST, horseradish peroxidase-conjugated secondary antibody was added and incubated at 37° C. for another 1 h. After three washes, 0.3 mg/ml of 3,3′,5,5′-tetramethylbenzidine in 0.015% H2O2 was added into each well and incubated in the dark at room temperature for 10 min. The reactions were stopped by the addition of 0.5 M H2SO4, and OD450 values were measured by an Infinite M200 microplate reader (TECAN, Männedorf, Switzerland). Additionally, the immunoglobulin (IgG) isotype characterization of anti-HSP90α antibodies was performed by using the Mouse Ig Isotyping ELISA Ready-Set-Go!™ Kit (eBioscience™, Thermo Fisher Scientific, Waltham, MA, USA). The ELISA protocol was also used to assay the secreted HSP90α levels of mouse serum samples as described previously. See Chen J S, Hsu Y M, Chen C C, Chen L L, Lee C C, Huang T S. Secreted heat shock protein 90α induces colorectal cancer cell invasion through CD91/LRP-1 and NF-κB-mediated integrin αV expression. […]

HSP90α = target: T2, HSP90α (Homo sapiens, UniProt P07900); experiment: Epitope determination by ELISA (domain, peptide and alanine scanning); assay type: binding; settings: full-length and truncated HSP90α
T2 construct: The full-length HSP90α (a.a. 1-732) and its 3 truncated fragments; 8×His; made in house; host or cells: Escherichia coli ClearColi, pET-23a
Description: The full-length HSP90α (a.a. 1-732) and its 3 truncated fragments including the N-terminal plus Linker domains (a.a. 1-272), N terminus through Middle domain (a.a. 1-629), and C-terminal domain (a.a. 630-732) were cloned, expressed, and purified. Briefly, each cDNA sequence with a 8×His-tag was amplified by PCR from the human ORF Clone (NM_005348) with the primers containing Xho I and BamH I sites. The PCR products were purified, digested with restriction enzymes, and then inserted into pET-23a plasmid (Sigma-Aldrich). The recombinant plasmids were then transformed into Escherichia coli ClearColi® competent cells (Lucigen Co., Middleton, WI, USA), and expressions of the recombinant constructs were stimulated by the addition of isopropyl-D-thiogalacto-pyranoside. The expressed histidine-tagged full-length and truncated HSP90α were further purified by using the Ni—NTA column (Qiagen, Germantown, MD, USA) according to the manufacturer's instructions. The purified proteins were finally dialyzed against the storage buffer consisting of 25 mM Tris-HCl (pH, 7.0), 50 mM NaCl, 0.1% Triton X-100, 50% glycerol, 1 mM EDTA, and 1 mM DTT, and protein concentrations were determined by the Bradford protein assay (Bio-Rad Laboratories, Hercules, USA).
At first, the domain scanning strategy was used to roughly delineate the HSP90α region responsible for the binding with our prepared antibodies. […]

[1] = target: T3, associations of CD91 with HSP90α and IKKα (Homo sapiens, UniProt P07900); experiment: Proximity ligation assay (PLA) in PANC-1 cells; assay type: cell-based; settings: 15 μg/ml rHSP90α, 10 μg/ml antibody
T3 construct: recombinant 732-amino acid (a.a.) full-length human HSP90α (rHSP90α; PeproTech Co., Cranbury, NJ, USA); purchased PeproTech Co., Cranbury, NJ, USA; host or cells: PANC-1 cells (CD91 and IKKα endogenous)
Method: PANC-1 cells seeded onto glass coverslips at a density of 2×10^5 cells per 22×22-mm coverslip were incubated 16 h with 0.5% serum-containing medium at 37° C. plus a 5% CO2 humidified atmosphere. The cells were then added with PBS or 15 μg/ml of rHSP90α in the absence or presence of 10 μg/ml of control IgG or the tested anti-HSP90α antibody for another 24-h incubation. The treated cells were then fixed with 3% paraformaldehyde and blocked with the blocking solution provided in the Duolink in situ PLA kit (Olink Bioscience, Uppsala, Sweden). Furthermore, the cell samples were incubated overnight at 4° C. with anti-CD91 antibody (1:80, cat. #550495, BD Biosciences, San Jose, CA, USA) mixed with anti-HSP90α antibody (1:80, cat. #AHP-1339, AbD Serotec, Raleigh, NC, USA) or anti-IKKα antibody (1:80, cat. #3285, Epitomics Co., Burlingame, CA, USA). After washed trice with Tris-buffered saline plus 0.05% Tween 20, the cell samples were incubated with PLA probes for the subsequent ligation and amplification procedure according to the manufacturer's instructions for the Duolink in situ PLA kit. Finally, nuclei were counterstained with 4′,6′-diamidino-2-phenylindole (DAPI; Sigma-Aldrich). Images were photographed and analyzed using Leica TCS SP5 II confocal microscope and LAS AF Lite 4.0 software (Leica, Wetzlar, Germany).

SW620 and PANC-1 cells = experiment: Transwell invasion assay, rHSP90α-induced cancer cell invasion; assay type: cell-based, human; settings: SW620 and PANC-1, 15 μg/ml rHSP90α plus 10 μg/ml antibody
Method: (§1) In a 37° C. and 5% CO2 humidified incubator, cancer cells were subjected to serum starvation in 0.5% FBS-containing medium for 16 h, and then added with PBS or 15 μg/ml of rHSP90α in the absence or presence of 10 μg/ml of control IgG or the tested anti-HSP90α antibody. After another 24 h, the treated cells were harvested as aliquots (1×10^5 cells per aliquot) in 0.5% FBS-containing culture medium, and then each aliquot was seeded into a top chamber of Transwell inserts pre-coated with 5-fold diluted Matrigel (BD Biosciences). Cells were allowed 16 h to invade through the Matrigel toward the bottom chambers containing culture medium plus 10% FBS. The filters of the Transwell inserts were then fixed and stained with Giemsa. Invasive cells on the lower side of filters were photographed using the Axiovert S100/AxioCam HR microscope system (Carl Zeiss, Oberkochen, Germany) and further quantified by the Image-Pro Plus software (Media Cybernetics, Inc., Silver Spring, MD, USA).

[2] = test system: SW620, PANC-1, and Panc 02 cells; experiment: Cell spheroid-forming assay, rHSP90α-induced gain-of-stemness; assay type: cell-based, human and mouse; settings: SW620, PANC-1, Panc 02; 15 μg/ml rHSP90α plus 10 μg/ml antibody
Method: One thousand cancer cells were seeded onto each well of 24-well plates pre-coated with a 4-mm thick layer of 0.5% agarose. After incubation 24 h with serum-free medium at 37° C. plus a 5% CO2 humidified atmosphere, cells were added with PBS or 15 μg/ml of rHSP90α in the absence or presence of 10 μg/ml of control IgG or the tested anti-HSP90α antibody. The incubation was kept for 10-14 days with supplements of some fresh serum-free medium every 3 days. Finally, the cell spheroids characterized by tight, non-adherent, and >100 μm in diameter were photographed and counted under an Olympus IX 71 inverted microscope (Center Valley, PA, USA). The spheroid formation % was calculated by the formula: (number of cell spheroids/1000)×100%.

PANC-1 cells = experiment: Transwell invasion assay, rHSP90α-induced PANC-1 invasion; assay type: cell-based, human; settings: 15 μg/ml rHSP90α plus 10 μg/ml antibody
Method: as §1, with “with PBS or 15 μg/ml of rHSP90α in the absence or presence of 10 μg/ml of control IgG or the tested anti-HSP90α antibody.” left out

HSP90α-binding levels (ELISA) (rHSP90α) | blocking of the binding of eHSP90α with its cell-surface receptor CD91 [1] | blocking of the downstream association of CD91 with IKKα [1] | Molecule | HSP90α region bound (domain scanning) (HSP90α) | rHSP90α-induced cancer cell invasion (SW620 and PANC-1 cells) | rHSP90α-induced spheroid-forming ability (gain-of-stemness) [2] | suppression of rHSP90α-induced invasiveness of PANC-1 cells (PANC-1 cells)
top two HSP90α-binding levels | efficiently blocked | efficiently blocked | Clone-2: mouse anti-HSP90α monoclonal antibody, IgG2b κ; VH SEQ ID NO: 2, VL SEQ ID NO: 7 (antibody, V domains shown, Heavy chain variable region; Light chain variable region) VH: EVQVVESGGGLVQPKGSLKLSCAASGFTFKTYAMNWVRQAPGKGLEWVARIRSKSRNYATYYADSVKDRFTISRDDSQFMFYLQMNNLKTEDTAMYYCVVGGSGFDYWGQGTTLTVSS VL: DVLMTQTPLSLPVSLGDQASISCRSSQSIVHSNGNTYLEWYLQKPGQSPKLLIYKVGVPDRFSGSGSGTDFTLSISRVEAGDLGVYYCFQGSHVPWTFGGGTKLEIK | bound to the a.a. 1-272 region as well as the full-length protein | drastically abolished | significantly inhibited | –
– | – | – | Clone-2-chimera: recombinant IgG1 antibody: Clone-2 VH and VL with human IgG constant domains (antibody, V domains shown) VH: EVQVVESGGGLVQPKGSLKLSCAASGFTFKTYAMNWVRQAPGKGLEWVARIRSKSRNYATYYADSVKDRFTISRDDSQFMFYLQMNNLKTEDTAMYYCVVGGSGFDYWGQGTTLTVSS VL: DVLMTQTPLSLPVSLGDQASISCRSSQSIVHSNGNTYLEWYLQKPGQSPKLLIYKVSNRFSGVPDRFSGSGSGTDFTLSISRVEAGDLGVYYCFQGSHVPWTFGGGTKLEIK | – | – | – | superior to Clone-2-hB, Clone-2-hC, and their parental Clone-2
